According to US20030096757:

Target: T1, 19-mer (SEQ ID NO:11) cleavage domain peptide
T1 chain: PRCGNPDVANYNFFPRKPK

B1: Proenzyme pro-MMP-9 (protein)
chain: APRQRQSTLVLFPGDLRTNLTDRQLAEEYLYRYGYTRVAEMRGESKSLGPALLLLQKQLSLPETGELDSATLKAMRTPRCGVPDLGRFQTFEGDLKWHHHNITYWIQNYSEDLPRAVIDDAFARAFALWSAVTPLTFTRVYSRDADIVIQFGVAEHGDGYPFDGKDGLLAHAFPPGPGIQGDAHFDDDELWSLGKGVVVPTRFGNADGAACHFPFIFEGRSYSACTTDGRSDGLPWCSTTANYDTDDRFGFCPSERLYTQDGNADGKPCQFPFIFQGQSYSACTTDGRSDGYRWCATTANYDRDKLFGFCPTRADSTVMGGNSAGELCVFPFTFLGKEYSTCTSEGRGDGRLWCATTSNFDSDKKWGFCPDQGYSLFLVAAHEFGHALGLDHSSVPEALMYPMYRFTEGPPLHKDDVNGIRHLYGPRPEPEPRPPTTTTPQPTAPPTVCPTGPPTVHPSERPTAGPTGPPSAGPTGPPTAGPSTATTVPLSPVDDACNVNIFDAIAEIGNQLYLFKDGKYWRFSEGRGSRPQGPFLIADKWPALPRKLDSVFEERLSKKLFFFSGRQVWVYTGASVLGPRRLDKLGLGADVAQVTGALRSGRGKMLLFSGRRLWRFDVKAQMVDPRSASEVDRMFPGVPLDTHDVFQYREKAYFCQDRFYWRVSSRSELNQVDQVGYVTYDILQCPED
Which “anti-activation (splicing) assay: conversion of pro-MMP-9 by stromilysin, HPLC peak areas” value does the source give for B1 here?
The value was “Titrating the standard splicing reaction with the 19-mer (SEQ ID NO:11) peptide prevents the conversion of pro-MMP-9 into the prodomain and the active enzyme. Splicing can be inhibited in a dose dependent manner with micromolar 19-mer (SEQ ID NO:11) peptide”.
